Assay results reported in patent US20090099029.

T1: Bovine, dephosphorylated, Myelin Basic Protein (MBP), P02687
T1 chain: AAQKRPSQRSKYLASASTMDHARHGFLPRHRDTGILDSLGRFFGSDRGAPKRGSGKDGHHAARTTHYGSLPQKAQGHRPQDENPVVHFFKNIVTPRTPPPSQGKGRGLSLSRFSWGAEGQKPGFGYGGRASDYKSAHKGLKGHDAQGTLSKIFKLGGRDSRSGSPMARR


Biological target: T1, Bovine, dephosphorylated, Myelin Basic …

Protein	MBP Kinase Activity
DAPK2 (protein) MFQASMRSPNMEPFKQQKVEDFYDIGEELGSGQFAIVKKCREKSTGLEYAAKFIKKRQSRASRRGVSREEIEREVSILRQVLHHNVITLHDVYENRTDVVLILELVSGGELFDFLAQKESLSEEEATSFIKQILDGVNYLHTKKIAHFDLKPENIMLLDKNIPIPHIKLIDFGLAHEIEDGVEFKNIFGTPEFVAPEIVNYEPLGLEADMWSIGVITYILLSGASPFLGDTKQETLANITAVSYDFDEEFFSQTSELAKDFIRKLLVKETRKRLTIQEALRHPWITPVDNQQAMVRRESVVNLENFRKQYVRRRWKLSFSIVSLCNHLTRSLMKKVHLRPDEDLRNCESDTEEDIARRKALHPRRRSSTS	Negative
CSNK2A1(CK2alpha1) (protein) MSGPVPSRARVYTDVNTHRPREYWDYESHVVEWGNQDDYQLVRKLGRGKYSEVFEAINITNNEKVVVKILKPVKKKKIKREIKILENLRGGPNIITLADIVKDPVSRTPALVFEHVNNTDFKQLYQTLTDYDIRFYMYEILKALDYCHSMGIMHRDVKPHNVMIDHEHRKLRLIDWGLAEFYHPGQEYNVRVASRYFKGPELLVDYQMYDYSLDMWSLGCMLASMIFRKEPFFHGHDNYDQLVRIAKVLGTEDLYDYIDKYNIELDPRFNDILGRHSRKRWERFVHSENQHLVSPEALDFLDKLLRYDHQSRLTAREAMEHPYFYTVVKDQARMGSSSMPGGSTPVSSANMMSGISSVPTPSPLGPLAGSPVIAAANPLGMPVPAAAGAQQ	Strong
DAPK3(ZIPK) (protein) MSTFRQEDVEDHYEMGEELGSGQFAIVRKCRQKGTGKEYAAKFIKKRRLSSSRRGVSREEIEREVNILREIRHPNIITLHDIFENKTDVVLILELVSGGELFDFLAEKESLTEDEATQFLKQILDGVHYLHSKRIAHFDLKPENIMLLDKNVPNPRIKLIDFGIAHKIEAGNEFKNIFGTPEFVAPEIVNYEPLGLEADMWSIGVITYILLSGASPFLGETKQETLTNISAVNYDFDEEYFSNTSELAKDFIRRLLVKDPKRRMTIAQSLEHSWIKAIRRRNVRGEDSGRKPERRRLKTTRLKEYTIKSHSSLPPNNSYADFERFSKVLEEAAAAEEGLRELQRSRRLCHEDVEALAAIYEEKEAWYREESDSLGQDLRRLRQELLKTEALKRQAQEEAKGALLGTSGLKRRFSRLENRYEALAKQVASEMRFVQDLVRALEQEKLQGVECGLR	Negative
CSNK1E(CK1eps) (protein) MELRVGNKYRLGRKIGSGSFGDIYLGANIASGEEVAIKLECVKTKHPQLHIESKFYKMMQGGVGIPSIKWCGAEGDYNVMVMELLGPSLEDLFNFCSRKFSLKTVLLLADQMISRIEYIHSKNFIHRDVKPDNFLMGLGKKGNLVYIIDFGLAKKYRDARTHQHIPYRENKNLTGTARYASINTHLGIEQSRRDDLESLGYVLMYFNLGSLPWQGLKAATKRQKYERISEKKMSTPIEVLCKGYPSEFSTYLNFCRSLRFDDKPDYSYLRQLFRNLFHRQGFSYDYVFDWNMLKFGAARNPEDVDRERREHEREERMGQLRGSATRALPPGPPTGATANRLRSAAEPVASTPASRIQPAGNTSPRAISRVDRERKVSMRLHRGAPANVSSSDLTGRQEVSRIPASQTSVPFDHLGK	Negative
CHEK1 (protein) MAVPFVEDWDLVQTLGEGAYGEVQLAVNRVTEEAVAVKIVDMKRAVDCPENIKKEICINKMLNHENVVKFYGHRREGNIQYLFLEYCSGGELFDRIEPDIGMPEPDAQRFFHQLMAGVVYLHGIGITHRDIKPENLLLDERDNLKISDFGLATVFRYNNRERLLNKMCGTLPYVAPELLKRREFHAEPVDVWSCGIVLTAMLAGELPWDQPSDSCQEYSDWKEKKTYLNPWKKIDSAPLALLHKILVENPSARITIPDIKKDRWYNKPLKKGAKRPRVTSGGVSESPSGFSKHIQSNLDFSPVNSASSEENVKYSSSQPEPRTGLSLWDTSPSYIDKLVQGISFSQPTCPDHMLLNSQLLGTPGSSQNPWQRLVKRMTRFFTKLDADKSYQCLKETCEKLGYQWKKSCMNQVTISTTDRRNNKLIFKVNLLEMDDKILVDFRLSKGDGLEFKRHFLKIKGKLIDIVSSQKIWLPAT	Strong
DMPK (protein) MSAEVRLRRLQQLVLDPGFLGLEPLLDLLLGVHQELGASELAQDKYVADFLQWAEPIVVRLKEVRLQRDDFEILKVIGRGAFSEVAVVKMKQTGQVYAMKIMNKWDMLKRGEVSCFREERDVLVNGDRRWITQLHFAFQDENYLYLVMEYYVGGDLLTLLSKFGERIPAEMARFYLAEIVMAIDSVHRLGYVHRDIKPDNILLDRCGHIRLADFGSCLKLRADGTVRSLVAVGTPDYLSPEILQAVGGGPGTGSYGPECDWWALGVFAYEMFYGQTPFYADSTAETYGKIVHYKEHLSLPLVDEGVPEEARDFIQRLLCPPETRLGRGGAGDFRTHPFFFGLDWDGLRDSVPPFTPDFEGATDTCNFDLVEDGLTAMVSGGGETLSDIREGAPLGVHLPFVGYSYSCMALRDSEVPGPTPMELEAEQLLEPHVQAPSLEPSVSPQDETAEVAVPAAVPAAEAEAEVTLRELQEALEEEVLTRQSLSREMEAIRTDNQNFASQLREAEARNRDLEAHVRQLQERMELLQAEGATAVTGVPSPRATDPPSHLDGPPAVAVGQCPLVGPGPMHRRHLLLPARVPRPGLSEALSLLLFAVVLSRAAALGCIGLVAHAGQLTAVWRRPGAARAP	Negative
CSNK1D(CK1delta) (protein) MELRVGNRYRLGRKIGSGSFGDIYLGTDIAAGEEVAIKLECVKTKHPQLHIESKIYKMMQGGVGIPTIRWCGAEGDYNVMVMELLGPSLEDLFNFCSRKFSLKTVLLLADQMISRIEYIHSKNFIHRDVKPDNFLMGLGKKGNLVYIIDFGLAKKYRDARTHQHIPYRENKNLTGTARYASINTHLGIEQSRRDDLESLGYVLMYFNLGSLPWQGLKAATKRQKYERISEKKMSTPIEVLCKGYPSEFATYLNFCRSLRFDDKPDYSYLRQLFRNLFHRQGFSYDYVFDWNMLKFGASRAADDAERERRDREERLRHSRNPATRGLPSTASGRLRGTQEVAPPTPLTPTSHTANTSPRPVSGMERERKVSMRLHRGAPVNISSSDLTGRQDTSRMSTSQNSIPFEHHGK	Negative
CSNK2A2 (protein) MPGPAAGSRARVYAEVNSLRSREYWDYEAHVPSWGNQDDYQLVRKLGRGKYSEVFEAINITNNERVVVKILKPVKKKKIKREVKILENLRGGTNIIKLIDTVKDPVSKTPALVFEYINNTDFKQLYQILTDFDIRFYMYELLKALDYCHSKGIMHRDVKPHNVMIDHQQKKLRLIDWGLAEFYHPAQEYNVRVASRYFKGPELLVDYQMYDYSLDMWSLGCMLASMIFRREPFFHGQDNYDQLVRIAKVLGTEELYGYLKKYHIDLDPHFNDILGQHSRKRWENFIHSENRHLVSPEALDLLDKLLRYDHQQRLTAKEAMEHPYFYPVVKEQSQPCADNAVLSSGLTAAR	Negative
EPHA3 (protein) RFCGYKSKHGADEKRLHFGNGHLKLPGLRTYVDPHTYEDPTQAVHEFAKELDATNISIDKVVGAGEFGEVCSGRLKLPSKKEISVAIKTLKVGYTEKQRRDFLGEASIMGQFDHPNIIRLEGVVTKSKPVMIVTEYMENGSLDSFLRKHDAQFTVIQLVGMLRGIASGMKYLSDMGYVHRDLAARNILINSNLVCKVSDFGLSRVLEDDPEAAYTTRGGKIPIRWTSPEAIAYRKFTSASDVWSYGIVLWEVMSYGERPYWEMSNQDVIKAVDEGYRLPPPMDCPAALYQLMLDCWQKDRNNRPKFEQIVSILDKLIRNPGSLKIITSAAARPSNLLLDQSNVDITTFRTTGDWLNGVWTAHCKEIFTGVEYSSCDTIAKISTDDMKKVGVTVVGPQKKIISSIKALETQSKNGPVPV	Strong
